Test results published in patent US20060229240A1 (GARDELL ET AL, published 2006).
Positions of bridges follow the written chain, without caps; N, C: chain ends. Non-standard residues stand in square brackets, D forms with d. No end group written: not given here. hArg = N=C(N)NCCCC[C@H](N)C(=O)O; Aib = CC(C)(N)C(=O)O

T1: PTH/PTHrP receptor (P1R), wild-type, full-length (human, UniProt Q03431 27-593)
T1 sequence (looked up): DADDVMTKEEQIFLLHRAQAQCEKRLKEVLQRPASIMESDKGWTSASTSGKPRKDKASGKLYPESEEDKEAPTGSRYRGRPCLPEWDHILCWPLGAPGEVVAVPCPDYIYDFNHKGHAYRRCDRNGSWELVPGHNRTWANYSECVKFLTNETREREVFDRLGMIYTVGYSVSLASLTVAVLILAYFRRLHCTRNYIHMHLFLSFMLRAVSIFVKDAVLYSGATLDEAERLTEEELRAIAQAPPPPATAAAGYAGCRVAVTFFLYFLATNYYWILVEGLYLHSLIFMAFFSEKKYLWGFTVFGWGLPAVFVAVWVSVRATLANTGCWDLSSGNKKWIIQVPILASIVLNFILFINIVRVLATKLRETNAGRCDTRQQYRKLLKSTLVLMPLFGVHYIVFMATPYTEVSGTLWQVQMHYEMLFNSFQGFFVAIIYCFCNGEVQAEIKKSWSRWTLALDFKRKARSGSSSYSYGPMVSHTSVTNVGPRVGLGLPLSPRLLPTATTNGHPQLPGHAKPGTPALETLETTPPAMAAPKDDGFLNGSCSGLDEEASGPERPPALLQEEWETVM

T2: P1R-DelNt (truncated human P1R deleted for residues 24-181) (human, UniProt Q03431 182-593)
T2 sequence (looked up): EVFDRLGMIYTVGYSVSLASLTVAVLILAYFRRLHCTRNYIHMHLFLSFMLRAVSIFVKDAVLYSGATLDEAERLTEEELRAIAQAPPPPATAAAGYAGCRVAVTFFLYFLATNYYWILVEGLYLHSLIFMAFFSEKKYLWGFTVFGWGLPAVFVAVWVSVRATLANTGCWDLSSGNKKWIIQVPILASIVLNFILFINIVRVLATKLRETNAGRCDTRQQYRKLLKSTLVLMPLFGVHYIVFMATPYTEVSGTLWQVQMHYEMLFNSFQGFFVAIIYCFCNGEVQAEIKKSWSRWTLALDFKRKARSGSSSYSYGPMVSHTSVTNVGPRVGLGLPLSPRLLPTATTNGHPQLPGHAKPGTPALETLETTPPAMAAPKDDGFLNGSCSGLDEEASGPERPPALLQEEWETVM


Biological target: T1, PTH/PTHrP receptor (P1R), wild-type, …
Experiment: cell-based or functional assay

Binder | cAMP EC50 | cAMP Emax (%)
AVAEIELMHK[hArg]AKW-NH2 (lactam 6-10; N-terminus assumed; SMILES CC[C@H](C)[C@H](NC(=O)[C@H](CCC(=O)O)NC(=O)[C@H](C)NC(=O)[C@@H](NC(=O)[C@H](C)N)C(C)C)C(=O)N[C@H]1CCC(=O)NCCCC[C@@H](C(=O)N[C@@H](CCCCNC(=N)N)C(=O)N[C@@H](C)C(=O)N[C@@H](CCCCN)C(=O)N[C@@H](Cc2c[nH]c3ccccc23)C(N)=O)NC(=O)[C@H](Cc2c[nH]cn2)NC(=O)[C@H](CCSC)NC(=O)[C@H](CC(C)C)NC1=O) [[(Glu^6, Lys^10)lac.]PTH(1-14), cyclized via a 6-10 lactam bridge] | 27000 nM | 52%
AVAEIELMHK[hArg]AKW-NH2 (N-terminus assumed; SMILES CC[C@H](C)[C@H](NC(=O)[C@H](CCC(=O)O)NC(=O)[C@H](C)NC(=O)[C@@H](NC(=O)[C@H](C)N)C(C)C)C(=O)N[C@@H](CCC(=O)O)C(=O)N[C@@H](CC(C)C)C(=O)N[C@@H](CCSC)C(=O)N[C@@H](Cc1c[nH]cn1)C(=O)N[C@@H](CCCCN)C(=O)N[C@@H](CCCCNC(=N)N)C(=O)N[C@@H](C)C(=O)N[C@@H](CCCCN)C(=O)N[C@@H](Cc1c[nH]c2ccccc12)C(N)=O) [[Glu^6, Lys^10]PTH(1-14) (linear)] | 40000 nM | 52%
AVAEIQLMHQ[hArg]AKW-NH2 (N-terminus assumed; SMILES CC[C@H](C)[C@H](NC(=O)[C@H](CCC(=O)O)NC(=O)[C@H](C)NC(=O)[C@@H](NC(=O)[C@H](C)N)C(C)C)C(=O)N[C@@H](CCC(N)=O)C(=O)N[C@@H](CC(C)C)C(=O)N[C@@H](CCSC)C(=O)N[C@@H](Cc1c[nH]cn1)C(=O)N[C@@H](CCC(N)=O)C(=O)N[C@@H](CCCCNC(=N)N)C(=O)N[C@@H](C)C(=O)N[C@@H](CCCCN)C(=O)N[C@@H](Cc1c[nH]c2ccccc12)C(N)=O) | 120 nM | 100%

Biological target: T2, P1R-DelNt (truncated human P1R deleted …)
Experiment: cell-based or functional assay

Binder | cAMP EC50 | cAMP Emax (%)
[Aib]V[Aib]EIQLMHA[hArg]AKW-NH2 (N-terminus assumed; SMILES CC[C@H](C)[C@H](NC(=O)[C@H](CCC(=O)O)NC(=O)C(C)(C)NC(=O)[C@@H](NC(=O)C(C)(C)N)C(C)C)C(=O)N[C@@H](CCC(N)=O)C(=O)N[C@@H](CC(C)C)C(=O)N[C@@H](CCSC)C(=O)N[C@@H](Cc1c[nH]cn1)C(=O)N[C@@H](C)C(=O)N[C@@H](CCCCNC(=N)N)C(=O)N[C@@H](C)C(=O)N[C@@H](CCCCN)C(=O)N[C@@H](Cc1c[nH]c2ccccc12)C(N)=O) [[Aib^1,3, Ala^10]PTH(1-14)] | 81 nM | 104%
[Aib]V[Aib]EIALMHQ[hArg]AKW-NH2 (N-terminus assumed; SMILES CC[C@H](C)[C@H](NC(=O)[C@H](CCC(=O)O)NC(=O)C(C)(C)NC(=O)[C@@H](NC(=O)C(C)(C)N)C(C)C)C(=O)N[C@@H](C)C(=O)N[C@@H](CC(C)C)C(=O)N[C@@H](CCSC)C(=O)N[C@@H](Cc1c[nH]cn1)C(=O)N[C@@H](CCC(N)=O)C(=O)N[C@@H](CCCCNC(=N)N)C(=O)N[C@@H](C)C(=O)N[C@@H](CCCCN)C(=O)N[C@@H](Cc1c[nH]c2ccccc12)C(N)=O) [[Aib^1,3, Ala^6]PTH(1-14)] | 146 nM | 101%
[Aib]V[Aib]EIALMHA[hArg]AKW-NH2 (N-terminus assumed; SMILES CC[C@H](C)[C@H](NC(=O)[C@H](CCC(=O)O)NC(=O)C(C)(C)NC(=O)[C@@H](NC(=O)C(C)(C)N)C(C)C)C(=O)N[C@@H](C)C(=O)N[C@@H](CC(C)C)C(=O)N[C@@H](CCSC)C(=O)N[C@@H](Cc1c[nH]cn1)C(=O)N[C@@H](C)C(=O)N[C@@H](CCCCNC(=N)N)C(=O)N[C@@H](C)C(=O)N[C@@H](CCCCN)C(=O)N[C@@H](Cc1c[nH]c2ccccc12)C(N)=O) [[Aib^1,3, Ala^6,10]PTH(1-14)] | 24 nM | 100%
